Experimental data published in patent US20230226096A1 (Orna Therapeutics, Inc., priority 2020, published 2023).

B1: Canine picodicistrovirus strain 209 (nucleic acid)
DNA: CGCTCTTTATACAAATCTGTCAACCCTTTGTATAACTCTAAGCCGAACAATTATAGCTAGGCTTTTTATTATATAACATTAATTAGGCATTAGCGTTGTCGCCAATCTCTTGGTAATCCTAAGGATACCTTTCCTGTTGACTAAGATGAAGCGCCTTCGGTTACCGATGCCCGGTGTCCACGAAGCCATCGTGGTCGGCCGCGTCCCCCACCTCTCCCAACTTGGACTCCATGTTTTCAGTAGGTGTAATGATTAGTATTATTGATTCTGCTCGTTCAATGTGTTTATCTTCACGATCTGGGACCCAACACATGCTTCACTCATGTTTAAATGTTGGTTCCCTCATTTTGAAGACACCCAAACCATAGAGTGCGAGAATGAGGATTTCTACTTCCATTCTGGTAACAGAAATGAATTCCTGCGTGTGTCTCGTAAATGGAATCTTTAAGAACTTCAGATAAATCGAACAATACACTAATACAAGTTGTTTTCTACCAACATGTTCAATGCGGCTAATCTGACCGTGGAGCTGTGAAGCGCTCAAACCCGAGTGTTGTATACAGTCGTAATGCGTAAGTCCATGAGGAACCGACTACTGTTACCTCTGTTGGTGTGTTTCTCCTTTCCTCTCTTTTATTATTATTTGTTATTGCAAATACTACAACTTTGATCAAC
B2: Canine distemper virus (nucleic acid, listed as Canine morbillivirus)
DNA: ACCAGACAAAGTTGGCTAAGGATAGTTAAATTATTGAATATTTTATTAAAAACTTAGGGTCAATGATCCTACCTTAAAGAACAAGGCTAGGGTTCAGACCTACCAAT
modifications: chemistry not fully specified
B3: Rafivirus WHWGGF74766 (nucleic acid, listed as Rafivirus sp.)
DNA: TGCGAATTTATTCGCACAGTCTCTTTTCCCCCATCTTGTGTGTGTGATGGGGTAAGCCGCAGAGTAATACCTACTCTGCTGCAAACACACTCACTCTTTTCTATCTACTTTATATCATGTAATAATAAGTAGGGAACATATTCAATTCATATTGTTCATCTCACTGAACCCGCATGAAGGACTGCATTGCATATCCTGGACGAAGTGACGTGGAATATTTGGACATTTATGGATTGGACACCATTACGCTTTGTGCCTCTACGGAGATGTAACCATAATCTTAAGTAGTAGTACCCCAGCACAAGAGGATAAAGTGGCATACACGACAACGGGTGTTGCTCGCACCTTAGTAATGTGGATGTTCACCCTTGGAGCGTGCTGAAACTCTGTGGGTAAAGACACACATTAGTACAAATGTGGGGGAACTCACTGAAAGGGCATGTCCCGTGTACTGGTGTGCCGGAAAGTGGGGGTCGCTTTCTGGAGAACTTAGTAGTTCTTGTTATTGGGTGATAGCCTTGCGGCGGATCAACTCACAGTTTTAATCCGTTGTTTTGCAT
B4: Canine kobuvirus (nucleic acid, listed as Kobuvirus sp.)
DNA: TTTAAGTGTTGTGCCCAATCTCTTGACTCCTGCTGGAACCACCGACCAGTAGTGTCCAAAATGCCAGGTGGAAAATCCTCCCTTCCCCTCTGGGCTTCATGCCCGGCATCCTCCCCCCAGCCTGACGTGCCACAGGCTGTGCAAAGACCCCGCGAAAGCTGCCAAAAGTGGCAATTGTGGGTCCCCCCTTTGTCAAGGCGTCGAGTCTTTCTCCCTTAAGGCTAGTCCTGTCAGTGAACTCTGTCGGGCAACTAGTGACGCCACTGCATGCCTCCGACCTCGGCCGCGGAGTGCTGCCCCCCAAGTCATGCCCCTGACCACAAGTTGTGCTGTCTGGCAAACATTGTCTGTGAGAATGTTCCGCTGTGGCTGCCAAGCCTGGTAACAGGCTGCCCCAGTGTGCGTAATTCTCATCCAGACTTCGGTCTGGCAACTTGCTGTTAAGACATGGCGTAAGGGGCGTGTGCCAACGCCCTGGAACGAGTGTCCACTCTAATACCCCGAGGAATGCTACGCAGGTACCCCTGGCTCGCCAGGGATCTGAGCGTAGGCTAATTGTCTAAGGGTATTTTCATTTCCCACCCTCTTCTTCTTGTTCATA
B5: Camel alphacoronavirus (nucleic acid, listed as Alphacoronavirus sp.)
DNA: CTTAAGTGTCTTATCTATCTATAGATAGAAAAGTCGCTTTTTAGACTTTGTGTCTACTCTTCTCAACTAAACGAAATTTTTGCTACGGCCGGCATCTCTGATGCTGGAGTCGTGGCGTAATTGAAATTTCATTTGGGTTGCAACAGTTTGGAAATAAGTGCTGTGCGTCCTAGTCTAAGGGTTCTGTGTTCTGTCACGGGATTCCATTCTACAAACGCCTTACTCGAGGTTCTGTCTCGTGTTTGTGTGGAAGCAAAGTTCTGTCTTTGTGGAAACCAGTAACTGTTCCTA
B6: Cripavirus (nucleic acid, listed as Cripavirus sp.)
DNA: GCAAAATCGGTAGTACGTTAAACGTACGACCACCGATGAGACTGAAATGACACTAGTTGAGATTATTTCAATATCCTAGTGTTATAAAGTCAATATTTGTTGGTTGATCGTTTCGTCAATCGATGGCGCTGACAGCCGGAAAGACGGCAATAATAAAAACCAAGATTTAGTTTTTAAGTTTTGATTGAATTGCAAAAGCTATCTTGAATAGACAATCAAAATATTAAGTAAAGCAAAAGCTTCTTAAAGAAGACAATATTTAATTAGTTAGTAACCAAACCTCATCGTGCCCCTAAGGGTTAACCGGTTACGTAAAAGCGTAGAGGTATTAAGGTCACTGCGGAGACCTAAAATCCGCAATTTTATGTTTTGTAATGTTTTAGTTATAGACTTAGATGTAACTATAAGAGTTTATAAATACTTGTTTCAAGATTTATAGACAAGATCTGATCCTATGGATTTTAGATAACCTTCATGTTAGTGGATAGTGTGTGTACCTATCTAAACGCATAAGGCTCTTATTTCATATTTAAAGTAGGACTATGTATTACGGCGCATCTAACGGTAACGTTAGTCAAGACCGGAGAATCTCGGAATGAATTTTAGTAATTCCCAAATTTATA
B7: Human coxsackievirus A2 (nucleic acid)
DNA: ACCTTTGTGCGCCTGTTTTATATCCCCACCCCGAGTAAACGTTAGAAGTTACGCAACCCCGATCAATAGTAGGTGTAGCACTCCAGCTGCATCGAGATCAAGCACTTCTGTCTCCCCGGACCGAGTATCAATAGACTGCTAACGCGGTTGAAGGAGAAAACGTTCGTTACCCGGCCAATTACTTCGAGAAGCCCAGTAGTGCCGTGAAAGTTGCGGAGTGTTTCGCTCAGCACTTCCCCCGTGTAGATCAGGCTGATGAGTCACCGCGATCCCCACAGGTGACTGTGGCGGTGGCTGCGTTGGCGGCCTGCCTATGGGGCAACCCATAGGACGCTCTAATACAGACATGGTGCGAAGAGCCTATTGAGCTAATTGGTAGTCCTCCGGCCCCTGAATGCGGCTAATCCTAACTGCGGAGCACATGCCCTCAAACCAGGGGGTGGTGTGTCGTAACGGGTAACTCTGCAGCGGAACCGACTACTTTGGGTGTCCGTGTTTCTTTTTATTCTTATAATGGCTGCTTATGGTGACAATTAAAGAATTGTTACCATATAGCTATTGGATTGGCCATCCGGTGACTAACAAATCGCTCATATACCAGTTTGTTGGTTTTGTTCCCTTATCACATACAGCTCATAACACCCTCTTATATTTACTACAATTGAATAGCAAGAA
B8: Coronavirus AcCoV-JC34 (nucleic acid)
DNA: AGAAACAAGTAGTGTTTTAAAAACCTTCAAATTAGTGCCTGTAACATCTTTGCAATGAAAGTAGCGCTCACTAGCCTCTATGCAAAGAATGTTAAAAGAAATACGAAGCATTTAAAGAATACAATCTATCTAGGATAGGTACAATTCTCCTCCCCCTCTTGACTTCGGTCAACTCAACTCAACTAAACGAAATCCCCCTTGCATGGTTCCGACCCGTGTAAGGTTGTGTATTTCGTGCAGTCGTTGCCCTTACTAGTGTAAGCGTAACGGCATCTAGGTTTGCACGTCTTGGAGGAAACGGTGTGTACGTTTCTAGTGTTTACGCCGTATCGGTTCCGGCCCGATAGGTATTGCATTAGACGTCCTGGGTGGTTCTGCCTGCCCTTGTGTGATTCGGCTGTTCCGTCAGTTTGGTCACCTCACACGTCCTTAAGAC
B9: Chicken picornavirus 3 (nucleic acid)
DNA: GGGTATGGTGGTTAACCCCGTCCACTGGGCATCTTTGCCCTCTCAGAAGTGGATCAATCCACCCCAACTCCCCCCCTGGTTACCTGAGCCACAGTGGACTCCGGTGACGAAGCTAGGGACCCCAATACCTCAAGTGCCAAGAGAGTCCCCCCCTCGCGAGAGGTGCTCTTGGGCCCAAAAGGCTAGTTGGCAGAGTGAAGTGAAGGAAGCTGCTAACGTGGTGACCTTAAGCGTAATTCGAAGCTGACCTTTGAGGTTAACCCTAGTGGACCACTGGAGGAATCTGTGGAGGTGGTGGTTAGGAAAGTTGGCCACTTGTGAGTAGATGCCCAGAAGGCATAAGGCTGATCTGGGGCCAGTGACTATACCGTTCCGGTAAACCTGGTATAAAAACCATGAAAGCAAGTGGGTGAAATTTTCTCTTTTTATCCTTCATTCAGCAGTTGATATTGGCAAA
B10: Chicken picornavirus 1 (nucleic acid)
DNA: GTGGCCGACTTGCAGAACTTCCTACCGAACCACCACCTCACCCCCATAACTCCTTCCCTCTACACCTTCCGCTATGGTGGTTACCACTGCTTTATTGCCTTGACTGAGAATGGCCACCCCCTCGACACCTGCCCCCTACTGCCCCACCGCGCAACCTTTTGCTTGTCCACTCGGTTGGAGAGGCATGGGGGCCCCGTTCATATCCCCAGTCCAGTTGGTGACCTTCCCCCTCCCCGTCCGGTAGATGGTCCAGAGGGCTTTGCCGACGCCCTCTATGATGCTTGCTTGTCTTTCCTCCGTCAGCGCGAGCATGCACTTGTCGAGCCCACGGAAACACAGCCTAGCTTTTGCTTCTCTCACCCTGCGTACCCTGGGCGCCTTCCGCTCGAGATTCGCTTTGTTCGACACCCTGGCGTCCCCCCACCGCTACGTGATTTTACTCGTGGCATACACCGCCCTGGCGTTCAGTACATTCCACTGCCTAATTTGGGTGGCCTCCCTCAATCTCCCGCACCCCCCATTGCGCACGTCATCACCGCCGCCGCTAACGCGATCCGGCGCGGTTCTCACTGGCACTGTCCCCTCGTCCGCCGGGTTTCCACTCATGGTTGGCTTTTCACTTATTCTGGTTACTGGTGTTCCATCCTACTTCATGATGGTCGCCATGACCATGAC

Tested on: HEK293 cells
Type: cell-based, human
Conditions: luminescence from secreted Gluc in supernatant 24 hours after transfection of HEK293 cells; circular RNA encoding Gluc with the named IRES (UTR truncated to 675 nt)

| Molecule | Expression |
| --- | --- |
| B1 | 2.79E+06 |
| B2 | 3.02E+05 |
| B3 | 4.53E+06 |
| B4 | 1.48E+08 |
| B5 | 2.48E+05 |
| B6 | 1.95E+05 |
| B7 | 7.75E+07 |
| B8 | 1.82E+05 |
| B9 | 9.13E+04 |
| B10 | 1.21E+05 |
